Test results: article PMC9810080 (Biochemistry, 2022)

Key:
Experiment in all cases: ITC
[1] = biological target: T1, CaM C-lobe fragment (residues 80–149) (UniProt P0DP23 80-149)
[2] = biological target: T1, CaM C-lobe fragment (residues 80–149); remark: listed apart in the source
[3] = biological target: T2, CaM N-lobe fragment (residues 1–80) (UniProt P0DP23 1-80)
[4] = biological target: T2, CaM N-lobe fragment (residues 1–80); remark: listed apart in the source
[5] = biological target: Calmodulin (CaM), full-length (UniProt P0DP23 1-149)

| Ka [1] [M⁻¹] | Kd [2] [µM] | Ka [3] [M⁻¹] | Kd [4] [µM] | Kd [5] [µM] | Binder |
| --- | --- | --- | --- | --- | --- |
| 18000 | 54 ± 5 |  |  |  | GGKGAKGGKLAHERARLKELAALEAAAK (peptide, UniProt Q14028 1120-1147, looked up) [CaM2^L1132E peptide (CNGB1 residues 1120–1147, L1132E)] |
| 12000 | 84 ± 10 |  |  |  | GGKGAKGGKLAHLRAREKELAALEAAAK (peptide, UniProt Q14028 1120-1147, looked up) [CaM2^L1136E peptide (CNGB1 residues 1120–1147, L1136E)] |
| 9.8e+06 | 0.1 ± 0.02 | < 18000 |  | 25 ± 4 | GGKGAKGGKLAHLRARLKELAALEAAAK (peptide, UniProt Q14028 1120-1147, looked up) [CaM2 peptide, CNGB1 residues 1120–1147] |

Continued, binder first:

| Binder | Ka [1] [M⁻¹] | Kd [2] [µM] | Ka [3] [M⁻¹] | Kd [4] [µM] | Kd [5] [µM] |
| --- | --- | --- | --- | --- | --- |
| NDRLQELVKLEKERTEKVKEKLIDP (peptide, UniProt Q14028 565-589, looked up) [CaM1^F575E peptide (CNGB1 residues 565–589, F575E)] |  |  | < 20000 | > 50 |  |
| NDRLQELVKLFKERTEKVKEKLIDP (peptide, UniProt Q14028 565-589, looked up) [CaM1 peptide, CNGB1 residues 565–589] | 34000 | 29 ± 5 | 180000 | 5.7 ± 1 |  |
